Experimental findings from paper PMC6572788 are described below.

The target of assay [1] is stabilized version of human CFTR (stab-CFTR: 2PT/ΔRI/R1048A_1172X) (human) (UniProt P13569).
Assay [2] concerns the target wt-CFTR fused to enhanced green fluorescent protein (His10-SUMO*-CFTR^FLAG-EGFP), PKA phosphorylated (human) (UniProt P13569).
Assay [3] shares this target. This is another data set of the same source.

Chain of wt-CFTR fused to enhanced green fluorescent protein (His10-SUMO*-CFTR^FLAG-EGFP), PKA phosphorylated (human) (P13569 whole entry, the tested form may be a part): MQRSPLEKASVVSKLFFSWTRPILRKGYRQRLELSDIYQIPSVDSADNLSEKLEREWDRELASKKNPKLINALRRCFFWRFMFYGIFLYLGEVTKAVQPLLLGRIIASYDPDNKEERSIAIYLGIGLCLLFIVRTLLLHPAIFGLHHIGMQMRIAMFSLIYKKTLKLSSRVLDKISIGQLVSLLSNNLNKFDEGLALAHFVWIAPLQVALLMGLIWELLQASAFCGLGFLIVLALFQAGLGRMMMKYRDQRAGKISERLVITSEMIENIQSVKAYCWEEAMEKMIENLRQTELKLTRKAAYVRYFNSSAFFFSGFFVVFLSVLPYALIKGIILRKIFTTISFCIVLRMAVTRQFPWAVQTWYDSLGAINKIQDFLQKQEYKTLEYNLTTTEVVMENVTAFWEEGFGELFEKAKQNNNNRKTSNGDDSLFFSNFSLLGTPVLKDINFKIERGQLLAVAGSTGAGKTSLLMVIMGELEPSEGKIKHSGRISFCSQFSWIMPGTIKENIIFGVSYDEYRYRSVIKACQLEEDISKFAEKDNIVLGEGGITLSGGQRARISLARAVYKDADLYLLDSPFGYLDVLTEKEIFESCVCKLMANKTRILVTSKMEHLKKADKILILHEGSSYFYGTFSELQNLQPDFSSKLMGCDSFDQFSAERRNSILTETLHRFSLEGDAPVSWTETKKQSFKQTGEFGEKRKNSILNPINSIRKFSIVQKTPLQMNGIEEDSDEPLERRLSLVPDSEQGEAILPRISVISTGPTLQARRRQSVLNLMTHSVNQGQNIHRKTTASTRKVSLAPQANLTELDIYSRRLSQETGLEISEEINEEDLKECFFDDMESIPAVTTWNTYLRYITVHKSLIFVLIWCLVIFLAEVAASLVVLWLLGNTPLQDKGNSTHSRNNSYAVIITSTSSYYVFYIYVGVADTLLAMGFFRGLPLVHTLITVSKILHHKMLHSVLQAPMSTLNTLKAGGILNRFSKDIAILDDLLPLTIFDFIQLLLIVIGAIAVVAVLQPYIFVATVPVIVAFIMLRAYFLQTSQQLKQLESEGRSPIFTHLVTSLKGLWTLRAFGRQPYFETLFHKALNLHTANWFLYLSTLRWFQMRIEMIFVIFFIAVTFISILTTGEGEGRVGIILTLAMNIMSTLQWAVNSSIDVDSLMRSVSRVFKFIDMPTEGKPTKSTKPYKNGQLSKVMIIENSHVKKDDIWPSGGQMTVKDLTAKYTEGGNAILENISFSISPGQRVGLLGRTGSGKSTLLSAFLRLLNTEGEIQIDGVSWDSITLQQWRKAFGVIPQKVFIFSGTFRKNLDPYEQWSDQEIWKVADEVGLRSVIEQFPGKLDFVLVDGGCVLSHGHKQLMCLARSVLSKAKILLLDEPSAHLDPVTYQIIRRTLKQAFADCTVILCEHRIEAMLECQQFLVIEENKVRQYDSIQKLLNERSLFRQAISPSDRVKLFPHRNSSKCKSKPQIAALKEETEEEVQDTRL
Chain of stabilized version of human CFTR (stab-CFTR: 2PT/ΔRI/R1048A_1172X) (human) (P13569 other isoform, or with tags, fused parts or gaps, stated change not applied): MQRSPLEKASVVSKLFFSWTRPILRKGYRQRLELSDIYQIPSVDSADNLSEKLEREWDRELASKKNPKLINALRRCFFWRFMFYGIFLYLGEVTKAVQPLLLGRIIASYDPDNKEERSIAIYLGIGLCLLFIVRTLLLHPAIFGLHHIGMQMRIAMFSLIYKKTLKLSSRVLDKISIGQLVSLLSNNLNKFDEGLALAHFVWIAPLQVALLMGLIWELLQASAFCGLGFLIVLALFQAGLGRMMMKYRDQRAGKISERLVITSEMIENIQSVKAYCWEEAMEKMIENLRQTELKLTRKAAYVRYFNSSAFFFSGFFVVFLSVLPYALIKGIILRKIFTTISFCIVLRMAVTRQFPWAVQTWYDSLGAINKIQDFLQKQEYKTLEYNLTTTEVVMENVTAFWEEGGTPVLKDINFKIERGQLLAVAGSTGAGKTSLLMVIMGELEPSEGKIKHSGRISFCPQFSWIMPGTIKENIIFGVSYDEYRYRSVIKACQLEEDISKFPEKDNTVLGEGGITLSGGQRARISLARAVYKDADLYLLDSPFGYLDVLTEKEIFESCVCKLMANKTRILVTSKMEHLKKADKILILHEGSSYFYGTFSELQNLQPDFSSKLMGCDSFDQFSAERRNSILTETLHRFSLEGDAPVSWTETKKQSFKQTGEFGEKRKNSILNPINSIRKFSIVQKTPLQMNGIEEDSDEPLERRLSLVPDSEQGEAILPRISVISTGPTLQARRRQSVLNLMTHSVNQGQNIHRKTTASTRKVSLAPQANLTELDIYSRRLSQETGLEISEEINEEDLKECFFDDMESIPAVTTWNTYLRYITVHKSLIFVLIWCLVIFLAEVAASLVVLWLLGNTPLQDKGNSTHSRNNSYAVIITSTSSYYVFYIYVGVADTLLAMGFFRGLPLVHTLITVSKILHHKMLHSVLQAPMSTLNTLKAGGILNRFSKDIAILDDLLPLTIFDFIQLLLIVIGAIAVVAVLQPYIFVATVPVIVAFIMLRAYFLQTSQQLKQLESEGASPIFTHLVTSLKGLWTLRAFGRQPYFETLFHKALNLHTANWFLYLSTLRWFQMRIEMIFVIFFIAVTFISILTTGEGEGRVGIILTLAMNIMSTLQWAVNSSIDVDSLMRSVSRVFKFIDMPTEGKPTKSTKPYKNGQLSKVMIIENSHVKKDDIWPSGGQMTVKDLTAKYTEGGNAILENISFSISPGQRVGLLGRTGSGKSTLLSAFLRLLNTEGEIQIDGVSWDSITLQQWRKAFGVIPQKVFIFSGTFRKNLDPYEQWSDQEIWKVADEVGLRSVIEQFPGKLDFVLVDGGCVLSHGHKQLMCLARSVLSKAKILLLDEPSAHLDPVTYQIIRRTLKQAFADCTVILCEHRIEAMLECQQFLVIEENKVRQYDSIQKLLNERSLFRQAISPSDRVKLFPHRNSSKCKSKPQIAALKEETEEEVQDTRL

B1: nanobody T4 (VHH)
VHH: QVQLQESGGGLVQAGGSLRLSCAASGSTFAIIAMGWYRQAPGKQRELVAVISTGDTRYADSVKGRFTISRDNAKNTVYLQMDSLRPEDTAVYYCNAAVQVRDYRNYWGQGTQVTVSS
B1: the thermostabilization of stab-CFTR by nanoDSF (~1:2 molar ratio) in assay [1] was determined as 8 °C.

B2: nanobody G3a (VHH)
VHH: QVQLQESGGGLVQAGGSLRLSCTASGRAFSWYVMGWFRQAPGKEREFVATVSGNGSRRDYADSVKGRFTISRDNAKNTVYLQMNSLKPEDTAVYYCAASSTYYYTDPEKYDYWGQGTQVTVSS
Regarding B2, in assay [2], the shift of the temperature of thermal inactivation of the ATPase activity of wt-CFTR (30 min heat challenge; 15 µM G3a) stood at 3.1 °C.

B3: nanobody D12 (VHH)
VHH: QVQLQESGGGLVQAGSSLRLACAATGSIRSINNMGWYRQAPGKQRGMVAIITRVGNTDYADSVKGRFTISRDNAKNTVYLQMNSLKPEDTATYYCHAEITEQSRPFYLTDDYWGQGTQVTVSS
In the case of B3, the ATPase activity of PKA-phosphorylated wt-CFTR (25 nM) with 1 µM nanobody, percent of the activity without nanobody in assay [3] is 50%. Further, the shift of the temperature of thermal inactivation of the ATPase activity of wt-CFTR (30 min heat challenge) in assay [2] came to 7 °C.

B4: nanobody T2a (VHH)
VHH: QVQLQESGGGLVQAGGSLRLSCAASGSIFRIDAMGWYRQAPGKQRELVAHSTSGGSTDYADSVKGRFTISRDNAKNTVYLQMNSLKPEDTAVYYCNADVRTRWYASNNYWGQGTQVTVSS
B4: the thermostabilization of stab-CFTR by nanoDSF (~1:2 molar ratio) in assay [1] amounted to 8 °C. Also, the ATPase activity of PKA-phosphorylated wt-CFTR (25 nM) with 1 µM nanobody, percent of the activity without nanobody in assay [3] stood at 50%.

B5: nanobody T27 (VHH)
VHH: QVQLQESGGGLEQPGGSLRLSCATSGVIFGINAMGWYRQAPGKQRELVATFTSGGSTNYADFVEGRFTISRDNAKNTVYLQMNGLRPEDTAVYYCHATVVVSRYGLTYDYWGQGTQVTVSS
For B5, the ATPase activity of PKA-phosphorylated wt-CFTR (25 nM) with 1 µM nanobody, percent of the activity without nanobody in assay [3] is 30%.
